According to patent US20250034253A1 (AKESO BIOPHARMA, published 2025):

Target: T1, human TIGIT-mFc (human; mouse, UniProt Q495A1 22-141, limits assumed)
T1 construct: also called antigen TIGIT-mFc; TIGIT-mnFc
Assay: BLI (Fortebio), TIGIT-mFc on AMC sensor, 37 C, 1:1 fit
Procedure: The sample dilution buffer was PBS (0.02% Tween-20, 0.1% BSA, pH 7.4). TIGIT-mFc was immobilized on an AMC sensor at a concentration of […] for 50 s, and the sensor was equilibrated in the buffer for 60 s. The TIGIT-mFc immobilized on the sensor was allowed to bind to the antibody at concentrations of 0.06-5 nM (three-fold dilutions) for 120 s, and the protein was dissociated in the buffer for 300 s. The sensor was regenerated in 10 mM glycine solution (pH=1.7). The detection temperature was 37° C., the detection frequency was 0.3 Hz, and the sample plate shaking rate was 1000 rpm. The data were analyzed by 1:1 model fitting to obtain affinity constants.

T1 sequence (Q495A1 other isoform, or with tags, fused parts or gaps limits assumed): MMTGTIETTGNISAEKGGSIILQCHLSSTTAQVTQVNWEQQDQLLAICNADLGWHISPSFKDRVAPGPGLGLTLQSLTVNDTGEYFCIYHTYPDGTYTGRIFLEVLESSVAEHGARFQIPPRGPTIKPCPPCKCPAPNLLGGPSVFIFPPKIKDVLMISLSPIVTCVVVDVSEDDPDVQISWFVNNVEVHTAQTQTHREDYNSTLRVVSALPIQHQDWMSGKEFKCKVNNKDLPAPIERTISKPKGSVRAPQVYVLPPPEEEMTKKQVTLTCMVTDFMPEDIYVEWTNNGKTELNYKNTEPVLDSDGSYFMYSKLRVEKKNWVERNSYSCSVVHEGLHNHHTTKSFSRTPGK

B1: RG6058 (antibody, V domains shown)
VH: EVQLQQSGPGLVKPSQTLSLTCAISGDSVSSNSAAWNWIRQSPSRGLEWLGKTYYRFKWYSDYAVSVKGRITINPDTSKNQFSLQLNSVTPEDTAVFYCTRESTTYDLLAGPFDYWGQGTLVTVSS
VL: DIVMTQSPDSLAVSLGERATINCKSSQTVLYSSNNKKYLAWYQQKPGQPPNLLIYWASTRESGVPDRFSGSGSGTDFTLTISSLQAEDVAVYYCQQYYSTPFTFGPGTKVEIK
Maximum signal height of analyte (nm): 0.16 nm
S E(kdis): 3.46e-05 s⁻¹
